Data reported in patent US20240400703A1 (Genmab, published 2024).

Biological target: T1, mouse OX40 expressed on ExpiCHO-S cells (mouse, UniProt P47741 20-272)
T1 construct: full-length entry; also called OX40mm; wild-type mouse OX40
T1 sequence: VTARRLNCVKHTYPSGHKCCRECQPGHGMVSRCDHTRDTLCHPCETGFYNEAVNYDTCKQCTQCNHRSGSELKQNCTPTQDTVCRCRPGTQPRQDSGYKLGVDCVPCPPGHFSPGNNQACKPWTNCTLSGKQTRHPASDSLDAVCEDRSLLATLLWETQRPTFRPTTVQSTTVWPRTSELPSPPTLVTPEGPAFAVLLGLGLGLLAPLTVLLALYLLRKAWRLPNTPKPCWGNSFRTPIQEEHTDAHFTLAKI
Test: not described (data not shown)

binding result: no binding
B1: IgG1-CD134-003-FEAL (antibody)
heavy: EQLKETGGGLVQPGGSLTLSCKASGFDFSSGYMSWVRQAPGKGLEWIGYIDPVFGSTYYASWVNGRFAISSHNAQNTLYLQLNSLTAADTATYFCARDLRAFYSGWGGINLWGPGTLVTVSSASTKGPSVFPLAPSSKSTSGGTAALGCLVKDYFPEPVTVSWNSGALTSGVHTFPAVLQSSGLYSLSSVVTVPSSSLGTQTYICNVNHKPSNTKVDKRVEPKSCDKTHTCPPCPAPEFEGGPSVFLFPPKPKDTLMISRTPEVTCVVVAVSHEDPEVKFNWYVDGVEVHNAKTKPREEQYNSTYRVVSVLTVLHQDWLNGKEYKCKVSNKALPAPIEKTISKAKGQPREPQVYTLPPSREEMTKNQVSLTCLVKGFYPSDIAVEWESNGQPENNYKTTPPVLDSDGSFLLYSKLTVDKSRWQQGNVFSCSVMHEALHNHYTQKSLSLSPG
light: AAVLTQTPSPVSAAVGGTVTIKCQSSQIVVNNNFLSWYQQKPGQPPKLLIYDASNLASGVPDRFSGSGSGTQFTLTISGVQSDDAATYYCLGGYDDDAENAFGGGTEVVVQRTVAAPSVFIFPPSDEQLKSGTASVVCLLNNFYPREAKVQWKVDNALQSGNSQESVTEQDSKDSTYSLSSTLTLSKADYEKHKVYACEVTHQGLSSPVTKSFNRGEC
notes: also called IgG1-CD134-003-L234F-L235E-D265A-F405L
